Target: Factor X, P00742
Sequence (P00742 whole entry, looked up): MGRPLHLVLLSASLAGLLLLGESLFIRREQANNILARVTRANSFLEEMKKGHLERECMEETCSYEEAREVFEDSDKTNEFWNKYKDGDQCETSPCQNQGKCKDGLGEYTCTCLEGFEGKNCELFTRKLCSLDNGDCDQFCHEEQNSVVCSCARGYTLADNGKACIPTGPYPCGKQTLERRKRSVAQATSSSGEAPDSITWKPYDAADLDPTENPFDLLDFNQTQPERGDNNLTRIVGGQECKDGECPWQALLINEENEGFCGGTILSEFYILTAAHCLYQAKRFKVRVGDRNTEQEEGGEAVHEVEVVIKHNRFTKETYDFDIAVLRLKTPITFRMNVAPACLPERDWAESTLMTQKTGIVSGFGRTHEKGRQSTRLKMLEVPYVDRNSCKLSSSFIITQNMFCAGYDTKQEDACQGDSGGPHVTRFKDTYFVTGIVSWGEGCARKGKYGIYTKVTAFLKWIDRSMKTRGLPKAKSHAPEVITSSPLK

B1: desialylated wild-type Factor VII (dWT VIIa) (protein)
chain 1: ANAFLEELRPGSLERECKEEQCSFEEAREIFKDAERTKLFWISYSDGDQCASSPCQNGGSCKDQLQSYICFCLPAFEGRNCETHKDDQLICVNENGGCEQYCSDHTGTKRSCRCHEGYSLLADGVSCTPTVEYPCGKIPILEKRNASKPQGR
chain 2: IVGGKVCPKGECPWQVLLLVNGAQLCGGTLINTIWVVSAAHCFDKIKNWRNLIAVLGEHDLSEHDGDEQSRRVAQVIIPSTYVPGTTNHDIALLRLHQPVVLTDHVVPLCLPERTFSERTLAFVRFSLVSGWGQLLDRGATALELMVLNVPRLMTQDCLQQSRKVGDSPNITEYMFCAGYSDGSKDSCKGDSGGPHATHYRGTWYLTGIVSWGQGCATVGHFGVYTRVSQYIEWLQKLMRSEPRPGVLLRAPFP
**Q.** How did the “Michaelis Menten kinetics of Factor X activation, Factor X titrated in the presence of sTF-Factor VII complexes (0.5 nM Factor VII, 125 nM sTF)” value turn out when B1 was run?
**A.** The value was “dWT VIIa (dF7) can activate Factor X more effectively (approximately 2-fold) than wild-type Factor VII (F7)”.

From US20150344863
